The source of these data is US20260207715A1, “KIT FOR COMBINATION THERAPY OF TUMOR DISEASES AND/OR INFECTIONS” (priority 2022, published 2026).

The test system of one data set is NIH3T3 cells spheroids. The data set can be described thus: Spheroid formation of NIH3T3 cells, propidium iodide staining. Format: cell-based, murine. Particulars: 24 hours. The protocol: In this example, immortalized murine fibroblast NIH3T3 cells were specifically chosen for generating spheroids due to their ability to produce a consistently uniform, rounded, and tightly cohesive structure. […] To achieve this, NIH3T3 cells (150,000 cells/mL) were seeded on non-tissue culture treated petri dish coverslips in 10 μL drops. Subsequently, they were treated with camptothecin and compound 4, the latter being activated both with and without H2O2, and were incubated upside down for 24 hours at 37° C. under 5% CO2. Following the incubation period, the spheroids were stained with propidium iodide (0.003 μg per 10,000 cells) for 3 minutes at room temperature. The analysis of these spheroids was conducted using an Axio Observer.Z1 microscope equipped with an A-Plan 10×/0.25 Ph1 objective (Zeiss). The images were recorded with a phase-contrast channel, and a 43 DsRed Reflector (λex=538-562 nm λem=570-640 nm) with a mercury vapor short-arc lamp.

The subject of the next data set is ROS (H2O2) production. In words: Enzymatic activity, production of ROS (H2O2), spectrofluorimetric experimental setup. Format: biochemical. Particulars: for enzymatically active: fusion protein; for enzymatic activity, production of ROS (H2O2): spectrofluorimetric experimental setup. The text has this:
The proteins APIT, the fusion protein zHER2:342-APIT and zHER2:342(K4R/K7A/K27R/K49R/K50A/K58A)-APIT were successfully recombinantly produced and purified. The proteins were verified for identity and purity by mass spectrometry and high-performance liquid chromatography (HPLC) (see FIGS. 3 and 4). Subsequently, both proteins were compared with respect to their enzymatic activity, in particular the production of ROS (H2O2) via a spectrofluorimetric experimental setup. The activity of both species is very similar: • APIT: 80 U/mg, • zHER2:342-APIT: 70 U/mg, • zHER2:342(K4R/K7A/K27R/K49R/K50A/K58A)-APIT: 70 U/mg.

Data set [1] concerns the target T1, HER2 receptor on HER2-positive cells (BT474 cell line) (Homo sapiens, UniProt P04626).
T1 construct: host or cells: BT-474 (HER2-positive breast cancer cell line), fixed with 4% paraformaldehyde
The data set can be described thus: Cell-based HER-2 binding assay on fixed HER2-positive cells. The following applies: fluorescent dye labeled protein. The text has this:
(§1) Shown are results of cell culture experiments to confirm the selective HER2 binding of the fusion proteins. The fusion proteins zHER2:342-APIT and zHER2:342(K4R/K7A/K27R/K49R/K50A/K58A)-APIT were labeled with fluorescent dye and probed for HER2 binding on fixed cells. Cell nuclei were stained with Hoechst33342.
Left panels: HER2-positive cells (BT474 cell line). Here, the fluorescent dye labeled fusion proteins bind to the HER2 receptor located on the cell membrane.
(§2) HER2 positive BT-474 (ACC 64), adherent cells were cultured in RPMI 1640 containing 20% (v/v) FBS, MEM non-essential amino acids, 1 mM Pyruvate, 10 μg/ml human insulin. HER2-negative MDA-MB-231 (ACC 732) adherent cells were cultured in Leibowitz' L15, 20% FBS. Cells were cultured from frozen stocks and passaged two times prior to the assay. Cells were incubated at 37° C., 5% CO2 humidified. At a confluency of 80% cell passaging was performed by trypsination using 0.25% (w/v) trypsin/0.2% (w/v) EDTA. Cells were seeded at 10 k cells/well on sterilized degreased 4%-gelatin coated cover slides ([…]) in 24-well plates and grown over night in the incubator. Cells were washed with PBS and fixated with freshly made 4% (w/v) paraformaldehyde solution for 30 min. […] Fluorescence signal was imaged using a ZEISS motorized Axio ZI observer fluorescence microscope. Images were analyzed and processed using Zeiss Zen Pro software.

The test system of data set [2] is HER2-negative cells (MDA-MB-231). The data set can be described thus: Cell-based HER-2 binding assay on fixed HER2-negative cells (negative control). Particulars: MDA-MB-231, fixed cells, fluorescent dye labeled protein. The protocol: as §1
Right panels: HER2-negative cells (MDA-MB-231).
as §2

The test system of another data set is HER2-positive tumor. The data set can be described thus: Tumor targeting and biodistribution in mice with HER2-positive and HER2-negative tumor. Type of data set: in vivo. Particulars: six hours after exposure, NIR-labelled protein. The protocol: Tumor targeting and biodistribution of (A) zHER2-APIT-NIR and (B) APIT-NIR in mice with HER2-negative tumor (black) and HER2-positive tumor (gray); (whiskers indicate 10-90% percentile values, line in the box is the median; significance was tested with the Mann-Whitney U test, *p<0.05 was considered statistically different; n.s.=not significant; n=6).
Labelling of 1 eq protein was performed with either 6 eq of AlexaFluor680™-maleimide (NIR) or 10 eq of TexasRed-maleimide in PBS containing 50 mM TCEP pH 7.4 at a protein concentration of 1.0 mg/mL overnight. Reaction mixture was purified via HiTrap Q HP using 50 mM Tris pH 8.0 (A) and 50 mM Tris 1 M NaCl pH 8.0 (B) with following method: 30% B for 45 CV, 30-100% B in 30 CV. The eluent was dialyzed in PBS. The degree of label (DOL) was determined according to the manufacturer's instructions using extinctions coefficient of 1.539 mLmg-1 cm-1 for APIT.

Entries after “also recorded” stand apart in the source; their conditions may differ.

On to `CC[C@@]1(O)C(=O)OCc2c1cc1n(c2=O)Cc2cc3ccccc3nc2-1` [camptothecin], for which the effect on spheroids entry in the data set with NIH3T3 cells spheroids is “disintegration of spheroids”.

As to “zHER2:342-APIT: fusion protein of targeting sequence zHER2:342 and APIT, SEQ ID NO. 4”, in the data set with ROS (H2O2) production, the enzymatically active is “remain enzymatically active” and the “enzymatic activity, production of ROS (H2O2)” value (shortened to “enzymatic activity, production”) was 70 U/mg. Also, the “binding to HER2-positive cells” value in data set [1] was “bind to HER2-positive; also recorded: confirmed”. Besides, in data set [2], the “binding to HER2-negative cells” value was “not HER2-negative cells”.

For the molecule “zHER2:342(K4R/K7A/K27R/K49R/K50A/K58A)-APIT: fusion protein of lysine-deleted zHER2:342 mutant and APIT, SEQ ID NO. 5”, in the data set with ROS (H2O2) production, the enzymatically active was “enzymatically active” and the “enzymatic activity, production” value was determined as 70 U/mg. Further, the “binding to HER2-positive cells” value in data set [1] is “bind to HER2 positive; also recorded: confirmed”. Further, the “binding to HER2-negative cells” value in data set [2] was “not HER2 negative cells”.

Take “zHER2-APIT: APIT fused with the zHER2 affibody, AlexaFluor680 (NIR) labelled for biodistribution”: the “levels in HER2-positive xenografts compared to HER2-negative tissues” value in the data set with HER2-positive tumor is listed as “Significantly higher levels”.

B1: APIT: FAD-binding L-amino acid oxidase from Aplysia punctata, SEQ ID NO. 1 (protein, listed as Aplysia punctata)
chain: MDGVSRNRRQCNREVCGSTYDVAVVGAGPGGANSAYMLRDSGLDIAVFEYSDRVGGRLFTYQLPNTPDVNLEIGGMRFIEGAMHRLWRVISELGLTPKVFKEGFGKEGRQRFYLRGQSLTKKQVKSGDVPYDLSPEEKENQGNLVEYYLEKLTGLQLNGEPLKREVALKLTVPDGRFLYDLSFDEAMDLVASPEGKEFTRDTHVFTGEVTLDASAVSLFDDHLGEDYYGSEIYTLKEGLSSVPQGLLQAFLDAADSNEFYPNSHLKALRRKTNGQYVLYFEPTTSKDGQTTINYLEPLQVVCAQRVILAMPVYALNQLDWNQLRNDRATQAYAAVRPIPASKVFMTFDQPWWLENERKSWVTKSDALFSQMYDWQKSEASGDYILIASYADGLKAQYLRELKNQGEDIPGSDPGYNQVTEPLKDTILDHLTEAYGVERDSIPEPVTAASQFWTDYPFGCGWITWRAGFHFDDVISTMRRPSLKDEVYVVGADYSWGLISSWIEGALETSENVINDYFL
modifications: FAD cofactor
As to B1, the “enzymatic activity, production” value with ROS (H2O2) production was 80 U/mg. The “levels in HER2-positive xenografts compared to HER2-negative tissues” value with HER2-positive tumor is “did not show differences”.
